Values joined by “and” are separate entries in the source; they are usually repeats but may differ in a detail not shown here. Identical values can stand only once.

Assay in all cases: fluorescence anisotropy
Data set [1] addresses RPA WT (RPA70-RPA32-RPA14) (human) (UniProt P27694+P15927+P35244). The note with it: FA: 200 mM NaCl, KCl or LiCl, 20 mM HEPES pH 7.4, 1 mM DTT, 22-25 C, 375 or 750 pM oligo, Kd,app +/- SEM; EMSA: 20 mM HEPES pH 7.4, 200 mM KCl, 1 nM 32P oligo. A general note: Mobility shift assays separate free from complexed probe on a gel.
Another data set relates to RPA AroB (human). The note with it: FA: 200 mM NaCl, KCl or LiCl, 20 mM HEPES pH 7.4, 1 mM DTT, 22-25 C, 375 or 750 pM oligo, Kd,app +/- SEM; EMSA: 20 mM HEPES pH 7.4, 200 mM KCl, 1 nM 32P oligo.
The test system of the next data set is RPA AroA (human). The note with it: FA: 200 mM NaCl, KCl or LiCl, 20 mM HEPES pH 7.4, 1 mM DTT, 22-25 C, 375 or 750 pM oligo, Kd,app +/- SEM; EMSA: 20 mM HEPES pH 7.4, 200 mM KCl, 1 nM 32P oligo.
Data set [2] has as its target CST (CTC1-STN1-TEN1) (human) (UniProt Q2NKJ3+Q9H668+Q86WV5). The note with it: FA: 200 mM NaCl, KCl or LiCl, 20 mM HEPES pH 7.4, 1 mM DTT, 22-25 C, 375 or 750 pM oligo, Kd,app +/- SEM, EMSA: 20 mM HEPES pH 7.4, 200 mM KCl, 1 nM 32P oligo.
A further data set has as its system RPA Aro1 (human). Particulars: FA: 200 mM NaCl, KCl or LiCl, 20 mM HEPES pH 7.4, 1 mM DTT, 22-25 C, 375 or 750 pM oligo, Kd,app +/- SEM; EMSA: 20 mM HEPES pH 7.4, 200 mM KCl, 1 nM 32P oligo.
A further data set has as its system RPA Aro4 (human). The note with it: FA: 200 mM NaCl, KCl or LiCl, 20 mM HEPES pH 7.4, 1 mM DTT, 22-25 C, 375 or 750 pM oligo, Kd,app +/- SEM; EMSA: 20 mM HEPES pH 7.4, 200 mM KCl, 1 nM 32P oligo.
Another data set concerns RPA AroC (human). The note with it: FA: 200 mM NaCl, KCl or LiCl, 20 mM HEPES pH 7.4, 1 mM DTT, 22-25 C, 375 or 750 pM oligo, Kd,app +/- SEM; EMSA: 20 mM HEPES pH 7.4, 200 mM KCl, 1 nM 32P oligo.
A further data set concerns RPA Aro3 (human). The note with it: FA: 200 mM NaCl, KCl or LiCl, 20 mM HEPES pH 7.4, 1 mM DTT, 22-25 C, 375 or 750 pM oligo, Kd,app +/- SEM; EMSA: 20 mM HEPES pH 7.4, 200 mM KCl, 1 nM 32P oligo.

Sequence of CST (CTC1-STN1-TEN1) (human) (Q2NKJ3 whole entry, chain 1 of 3): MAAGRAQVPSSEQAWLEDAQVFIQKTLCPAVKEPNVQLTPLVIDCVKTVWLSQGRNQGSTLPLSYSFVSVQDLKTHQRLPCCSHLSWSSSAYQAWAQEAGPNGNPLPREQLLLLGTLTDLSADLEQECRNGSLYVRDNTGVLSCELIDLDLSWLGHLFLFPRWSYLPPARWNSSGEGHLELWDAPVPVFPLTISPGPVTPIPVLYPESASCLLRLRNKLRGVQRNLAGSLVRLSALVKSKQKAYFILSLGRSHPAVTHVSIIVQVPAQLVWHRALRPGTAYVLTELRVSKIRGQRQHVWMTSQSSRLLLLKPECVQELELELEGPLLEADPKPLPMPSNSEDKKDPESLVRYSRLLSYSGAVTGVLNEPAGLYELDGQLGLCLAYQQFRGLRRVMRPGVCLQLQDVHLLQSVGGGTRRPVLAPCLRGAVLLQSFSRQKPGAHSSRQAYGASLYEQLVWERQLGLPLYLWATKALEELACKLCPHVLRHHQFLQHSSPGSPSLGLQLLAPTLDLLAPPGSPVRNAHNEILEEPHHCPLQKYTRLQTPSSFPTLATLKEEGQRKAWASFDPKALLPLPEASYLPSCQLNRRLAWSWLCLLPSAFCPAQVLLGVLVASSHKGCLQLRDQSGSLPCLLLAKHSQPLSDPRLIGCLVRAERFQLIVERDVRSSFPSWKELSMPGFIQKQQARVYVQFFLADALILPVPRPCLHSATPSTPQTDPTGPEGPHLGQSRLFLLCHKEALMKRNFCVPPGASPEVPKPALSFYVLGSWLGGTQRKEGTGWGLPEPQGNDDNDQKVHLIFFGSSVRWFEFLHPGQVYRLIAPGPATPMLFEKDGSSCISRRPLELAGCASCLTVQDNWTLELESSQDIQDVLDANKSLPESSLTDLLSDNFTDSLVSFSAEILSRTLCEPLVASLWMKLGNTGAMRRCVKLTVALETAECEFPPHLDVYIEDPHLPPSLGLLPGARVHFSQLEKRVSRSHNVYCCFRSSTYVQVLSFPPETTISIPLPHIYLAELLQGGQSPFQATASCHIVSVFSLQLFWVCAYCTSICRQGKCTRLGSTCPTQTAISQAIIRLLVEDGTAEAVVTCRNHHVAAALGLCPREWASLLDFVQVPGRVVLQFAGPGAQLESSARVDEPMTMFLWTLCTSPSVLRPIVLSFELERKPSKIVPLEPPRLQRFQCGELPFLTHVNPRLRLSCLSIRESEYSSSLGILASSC
Sequence of CST (CTC1-STN1-TEN1) (human) (Q9H668 whole entry, chain 2 of 3): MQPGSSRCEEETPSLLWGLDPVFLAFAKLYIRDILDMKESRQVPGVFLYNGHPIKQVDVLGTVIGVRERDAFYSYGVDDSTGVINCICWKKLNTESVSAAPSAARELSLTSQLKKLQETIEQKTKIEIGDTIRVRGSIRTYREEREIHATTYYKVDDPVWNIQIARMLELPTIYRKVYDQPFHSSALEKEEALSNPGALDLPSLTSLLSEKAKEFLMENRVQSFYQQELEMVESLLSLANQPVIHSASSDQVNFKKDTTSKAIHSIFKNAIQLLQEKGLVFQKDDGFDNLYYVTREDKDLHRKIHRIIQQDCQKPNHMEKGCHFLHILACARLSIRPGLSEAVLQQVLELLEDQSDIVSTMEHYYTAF
Sequence of CST (CTC1-STN1-TEN1) (human) (Q86WV5 whole entry, chain 3 of 3): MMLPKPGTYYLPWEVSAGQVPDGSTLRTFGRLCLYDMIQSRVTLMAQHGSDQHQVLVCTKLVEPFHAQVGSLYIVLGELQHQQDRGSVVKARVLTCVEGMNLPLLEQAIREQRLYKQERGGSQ
Sequence of RPA WT (RPA70-RPA32-RPA14) (human) (P27694 whole entry, chain 1 of 3): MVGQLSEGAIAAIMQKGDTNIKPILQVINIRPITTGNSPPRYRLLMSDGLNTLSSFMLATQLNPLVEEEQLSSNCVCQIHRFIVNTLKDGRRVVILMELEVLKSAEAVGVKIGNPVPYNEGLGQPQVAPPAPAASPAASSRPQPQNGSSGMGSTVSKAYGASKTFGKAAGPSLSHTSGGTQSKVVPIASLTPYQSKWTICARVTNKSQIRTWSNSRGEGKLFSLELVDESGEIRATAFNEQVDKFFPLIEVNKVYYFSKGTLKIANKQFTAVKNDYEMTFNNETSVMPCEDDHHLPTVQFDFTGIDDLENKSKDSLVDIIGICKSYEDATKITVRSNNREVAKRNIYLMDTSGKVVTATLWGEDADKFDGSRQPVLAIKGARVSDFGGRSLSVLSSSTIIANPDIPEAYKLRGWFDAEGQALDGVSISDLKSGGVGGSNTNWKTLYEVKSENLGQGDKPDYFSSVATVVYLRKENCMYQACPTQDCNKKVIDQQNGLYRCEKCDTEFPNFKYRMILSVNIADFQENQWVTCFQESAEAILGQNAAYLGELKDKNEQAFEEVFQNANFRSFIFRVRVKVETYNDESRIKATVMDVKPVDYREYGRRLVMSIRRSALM
Sequence of RPA WT (RPA70-RPA32-RPA14) (human) (P15927 whole entry, chain 2 of 3): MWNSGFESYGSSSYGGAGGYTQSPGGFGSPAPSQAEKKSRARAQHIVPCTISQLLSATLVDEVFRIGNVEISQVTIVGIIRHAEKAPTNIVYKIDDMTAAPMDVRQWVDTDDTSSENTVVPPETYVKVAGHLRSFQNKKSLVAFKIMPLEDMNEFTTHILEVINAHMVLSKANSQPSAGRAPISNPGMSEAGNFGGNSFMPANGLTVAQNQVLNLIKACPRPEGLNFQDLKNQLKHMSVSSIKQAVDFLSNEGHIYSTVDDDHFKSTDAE
Sequence of RPA WT (RPA70-RPA32-RPA14) (human) (P35244 whole entry, chain 3 of 3): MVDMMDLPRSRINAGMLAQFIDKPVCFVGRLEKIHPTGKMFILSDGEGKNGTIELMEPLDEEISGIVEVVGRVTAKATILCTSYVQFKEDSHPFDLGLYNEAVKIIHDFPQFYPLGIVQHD

For Tel18, the Kd in data set [1] is 0.73 nM and 0.5 nM and 0.66 nM; in the data set with RPA AroB (human), 0.5 nM and 0.66 nM and 0.45 nM; in the data set with RPA AroA (human), 0.79 nM and 0.34 nM and 0.36 nM; in data set [2] (200 mM LiCl), 6.7 nM; in data set [2] it was 7.7 nM and 9.3 nM; in the data set on RPA Aro1 (human) it was 4.7 nM and 2.5 nM and 5.6 nM. Besides, the Kd is 3.5 nM and 9.1 nM and 5.1 nM with RPA Aro4 (human); 0.59 nM and 0.26 nM and 0.49 nM with RPA AroC (human); 0.24 nM and 0.56 nM and 0.65 nM with RPA Aro3 (human).

For Tel22, the Kd is 1.23 nM and 1.99 nM and 0.35 nM in data set [1]; 2.4 nM and 2.5 nM and 0.36 nM in the data set with RPA AroA (human); above 340 nM in data set [2] (200 mM KCl, printed >=, incomplete curve); 6.7 nM in data set [2] (200 mM LiCl); 106 nM in data set [2].

As to Tel30, the Kd in data set [1] was 0.96 nM and 0.81 nM and 0.32 nM; in the data set on RPA AroB (human), 1.07 nM and 1.9 nM and 0.36 nM; in the data set on RPA AroA (human), 0.48 nM and 0.77 nM and 0.29 nM; in data set [2] (200 mM LiCl), 5.2 nM; in data set [2], 67 nM and 112 nM; with RPA AroC (human), 0.62 nM and 1.62 nM and 0.28 nM.

For Tel40, the Kd in data set [1] is 1.3 nM and 1.1 nM and 0.9 nM; in data set [2] (200 mM LiCl), 0.73 nM; in data set [2] it was 0.74 nM and 1.1 nM.

In the case of Tel60, the Kd in data set [1] is 0.79 nM and 0.69 nM and 0.8 nM; in data set [2] (200 mM LiCl) it was 1.2 nM; in data set [2], 10.6 nM and 9 nM.

The values above are taken from article PMC10250233.
